Source: paper PMC3991700

Each sequence was assayed against T1, FilR1 (Methanosaeta harundinacea 6Ac) (UniProt G7WMP6) (assay: EMSA). Settings: EMSA: 10 mM Tris-HCl pH 8.0, 50 mM KCl, 10 mM MgCl2, 1 mM DTT, 2.5% glycerol, 1% NP-40, 0.5 mM EDTA, 1 ug/uL poly dI-dC, 10 fmol (0.5 nM) biotin probe, 20 uL ….
T1 sequence: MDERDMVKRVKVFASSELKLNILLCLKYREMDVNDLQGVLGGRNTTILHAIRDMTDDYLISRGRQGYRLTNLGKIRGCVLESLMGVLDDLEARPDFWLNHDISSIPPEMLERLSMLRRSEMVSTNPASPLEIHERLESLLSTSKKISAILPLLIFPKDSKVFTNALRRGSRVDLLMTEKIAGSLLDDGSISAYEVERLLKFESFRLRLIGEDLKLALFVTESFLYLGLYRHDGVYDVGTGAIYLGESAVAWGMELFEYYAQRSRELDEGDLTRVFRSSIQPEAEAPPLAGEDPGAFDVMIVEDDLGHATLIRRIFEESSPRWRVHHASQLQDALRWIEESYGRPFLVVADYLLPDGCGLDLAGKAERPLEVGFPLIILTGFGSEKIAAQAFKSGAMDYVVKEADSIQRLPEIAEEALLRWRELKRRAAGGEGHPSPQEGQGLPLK
“AAACCGCCCTCCTCTCCAGCCTCTCACCATTTCAACCTGGCGGATTGAGTTCAATCTAAATGGATTTTTATCAATTTAATTGGATATCCTCCCATCAAAACATAATCGGTAATTTTTAGCATTAAATCACCGTCACGATTTCACAAACTTAAATGTATATGTGTTCTAATCAATAAACTAAACAATAATATTCTCATTATACTAGTTGCCAATCCGAAAGGGTTTTATCTTCTACATGCGACTACCGAGCAAACCAGAGTACAGAAGGAGGTCAAGC (double strand) [cdhBEA promoter]” was tested, and the binding was “no binding”.
For “AACCCCCATAAATGATAGATCCGAAAGTAATTAAATAAATCGGTCGGTCTTCGGCCGCGGGTGGAACCAGAGGATCCCATCAGCTATGAGGGGGATCGTCAGGTGGACCGCCCTTTGAAGGATCATCCATCTCCTGAGACCTCCAGACCCCGGCGAGATGGCCGTTAGTCTCCATAAGCTCTCTCCAGCTGCCGGATTCGACAAATCGCCCCCTCTCCAGGACCTGGATCATTACCGAGGAGAGGTTTTGCCC (double strand) [Pomp]”, the binding was “binds”.
In the case of “AACGGGTTCCATCTCGATATGATCAAGGGGTGGGGGGTTTATTAATAGGTTGAGGTCCCCCTCTCGAGGCCCGGAAAGGGCAAGAGATCCCCCGATAGATTTTTATCGACCGCATATTATCGAATTTTCCCCCGGCAGAGAGGCGGAGGCTTTATACCATTTTGGCATATCGAGGGTGAGTGGGTGAATCGGCATGGCGGAG (double strand) [Pacs1]”, the binding is reported as “binds”.
In the case of “AATCCACCTAAACTCACCCATATTATGCCAGTTTGAAGCCTTTTAGGACCGACCGCATCACTGCTTAGCGGTAGTGATGCTAATCGATTTTCTCATAAACCTTTTATATCAGTACCTTGTGTTTAGCTCTTACGGCTAATGGAGGTAAAAAATGAGCGGCGAATTGGTG (double strand) [fpo promoter]”, the binding is reported as “no binding”.
For “ACCCGTTTGACCATATCCCTTTCGTCCATGTTGAGGTCCCCCTCATTTTAAGGGCCTAAATGGCGTAGATCCACGAAAGCCGGGAGCGATTCGCGATCCGACGGAACAACTCCCCAGTTATCGGCTTGATATCAGCCTCCACCCTCCAATTTCGCGAGCCCATCTCCTCGGCTTGAGTTTTTTCCTTGATTTCGCCGTATAAGTAGCTTCCGACGATCCCGATGCTGATAGAAGCTCTGAAGTTCTCATCGTACCG (double strand) [PfilR1 (filR1 promoter)]”, the binding was “binds”.
For “AGATGAAACCAGAATTATCGTTGAAGATCCCTCCCTCCGAAGATCTCCGATGGATCTCATCGATGGAACCATCTGAGGAGGCGGATCGTCGTCACCGGTTCCCCACCCGCGATGGACAATTATTCGTTATACTCGGAGGGTTATCTTCATAAACCACGGACGGATGACAGTAAGGCAGGTGCGAGGCCTTCATCACCCAGTGGACGGAGAGACAATCTCGTTTTGGAGGAGGTTGAAAGGAAG (double strand) [PfilI-R2 (filI-filR2 promoter)]”, the binding was “binds”.
For “CCATCCCTCTCCCTCAAGATATAGGAGGGAAAAGGTGGACGCTCACTTGGCGAGCGTCACCTTCTCGATGGTAACCTTGGCGTCCTTGAGGATCAGCTTGATCCCGCCCGCTCCGCCCGCCGACATGGCAAAGGCGGGGGCAGCTCCTGCCGCCGGGGCTGCTGCTGCGGCCGGAGCCGCCGCGGCAGGTGCTCCAGGTTCCTTCGACTTCAGCTTCAGTGACAGTTTCTTGGCCATTCCTATAACCTCCTACACCCTCAAATACAGAGATACTATAAATTC (double strand) [cdhCD promoter]”, the binding was “no binding”.
In the case of “CCATTAGGAGCCGTCGATTCAGCTGTTTTTGATTTTCAGGATTTATACCCGGCCGATATTCCATATTTTGGAATCTATAATGATTAAAAGGCCACTAACCTTATTAATCATGAAGATTACTAATCGACATGGTCCAGTCGAGCGTTCTCTATAGACAAACGGAGAGAATGCGTGGCAGATTCTGGTTTGAAATCTCCGTATTGGAGCTGGTATCTGCCCGGGGATCTGGGGAGAGAAGAGTGCAAAATATTCGATCTTTGATTAAGGAGGGTTGAAATTGGCT (double strand) [Pacs4]”, the binding is reported as “binds”.
“GCTAACCATGTCCATTTGCTCTCCTCCTTTTTAATTCTTGCCAAATCATAGTAATCTATGAAAAATTTGGCCAGTAACGTACTGACTATCGGTTACTGGACTTATAAAGCTTTCGAAATGGAAATGAAAGCCCCATTTTTGTTTTTTGTCCCGGTTTTAGTGAGCCCGAAAGATCTGAAATCCCCAAATAAAAGCCTGAAATATAAAAAAAACAAGGAAGAACAGTTTGGGGCGAA (double strand) [Pmtr]” was tested, and the binding was “binds”.
In the case of “GGTCGGAGAGGCTGAGGGCGATCCCCGTCGTCGTCCTCACCACCTCCACCAGCGACGACGACCTCCGGCGGGCCTACTCCAACCACGTCAACAGCTACCTCATCAAGCCCCTCAGCTTCGAGGACCTGAAGCGGACCGTCGAGGAGATCAAAGAGTACTGGCTTGGATGGAACCGCTCCCCCGGACCCGCGTGAAAGACCCCAGAGGTGAGCGAAACCGAGGCCTTCACCCATGACGCTGCGCC (double strand) [UfilI (internal fragment of filI)]”, the binding is reported as “no binding”.
